Results from the supplement of paper PMC10567573.

B1: PBXIP1 (parent)
chain: EKQKQPRWREGTKDSHDPLPSWAE
B2: MLH1 (parent)
chain: YNIATRRKALKNPSEEYGKILEVV

Variants of: B1
Assay: protein stability index of a GFP-peptide fusion (GPS, HEK-293T) (PSI 1-6); higher = more stable
Conditions: c terminus: a fixed tail appended
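Also: lentivirally expressed fusions sorted by FACS into six bins by GFP to DsRed ratio, PSI derived from sequencing read proportions per bin multiplied by bin number.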

Variant	protein stability index
EKQKQPRWREGTKDSHDPLPSWAN	3.02
EKQKQPRWREGTKDSHDPLPSWAT	2.39
EKQKQPRWREGTKDSHDPLPSWAA	2.62
EKQKQPRWREGTKDSHDPLPSWAR	3.34
EKQKQPRWREGTKDSHDPLPSWAF	3.11
EKQKQPRWREGTKDSHDPLPSWAS	2.34
EKQKQPRWREGTKDSHDPLPSWAY	3.09
EKQKQPRWREGTKDSHDPLPSWAK	2.89
EKQKQPRWREGTKDSHDPLPSWAW	1.95
EKQKQPRWREGTKDSHDPLPSWAM	3.16
EKQKQPRWREGTKDSHDPLPSWAD	1.9
EKQKQPRWREGTKDSHDPLPSWAH	3.29
EKQKQPRWREGTKDSHDPLPSWAP	4.12
EKQKQPRWREGTKDSHDPLPSWAL	3.02
EKQKQPRWREGTKDSHDPLPSWAC	2.66
EKQKQPRWREGTKDSHDPLPSWAI	3.06
EKQKQPRWREGTKDSHDPLPSWME	3.36
EKQKQPRWREGTKDSHDPLPSWQE	2.26
EKQKQPRWREGTKDSHDPLPSWSE	2.01

Variant	protein stability index
EKQKQPRWREGTKDSHDPLPSWEE	2.39
EKQKQPRWREGTKDSHDPLPSWIE	2.61
EKQKQPRWREGTKDSHDPLPSWPE	3.89
EKQKQPRWREGTKDSHDPLPSWKE	4.51
EKQKQPRWREGTKDSHDPLPSWLE	4.81
EKQKQPRWREGTKDSHDPLPSWFE	3.56
EKQKQPRWREGTKDSHDPLPSWWE	2.76
EKQKQPRWREGTKDSHDPLPSWHE	4.04
EKQKQPRWREGTKDSHDPLPSWNE	4.99
EKQKQPRWREGTKDSHDPLPSWTE	2.08
EKQKQPRWREGTKDSHDPLPSWYE	4.24
EKQKQPRWREGTKDSHDPLPSQAE	5.57
EKQKQPRWREGTKDSHDPLPSLAE	3.24
EKQKQPRWREGTKDSHDPLPSTAE	5.07
EKQKQPRWREGTKDSHDPLPSPAE	5.49
EKQKQPRWREGTKDSHDPLPSRAE	5.4
EKQKQPRWREGTKDSHDPLPSSAE	4.78
EKQKQPRWREGTKDSHDPLPSYAE	4.85
EKQKQPRWREGTKDSHDPLPSNAE	5.48

Variants of: B2
Assay: as above
Conditions: c terminus: a fixed tail appended

Variant	protein stability index
YNIATRRKALKNPSEEYGKILEQV	3.34
YNIATRRKALKNPSEEYGKILERV	3.22
YNIATRRKALKNPSEEYGKILEGV	3.62
YNIATRRKALKNPSEEYGKILETV	2.97
YNIATRRKALKNPSEEYGKILEHV	3.69
YNIATRRKALKNPSEEYGKILEDV	3.65
YNIATRRKALKNPSEEYGKILEPV	3.41
YNIATRRLALKNPSEEYGKILEVV	1.99
YNIATRRHALKNPSEEYGKILEVV	2.48
YNIATRRVALKNPSEEYGKILEVV	2.2
YNIATRRDALKNPSEEYGKILEVV	3.09
YNIATRRFALKNPSEEYGKILEVV	2.27
YNIATRRCALKNPSEEYGKILEVV	1.87
YNIATRRRALKNPSEEYGKILEVV	2.85
YNIATRRKALKNPSEEIGKILEVV	2.95
YNIATRRKALKNPSEEWGKILEVV	2.66
YNIATRRKALKNPSEECGKILEVV	3.05
YNIATRRKALKNPSEETGKILEVV	3.72
YNIATRRKALKNPSEEAGKILEVV	3.52
YNIATRRKALKNPSEEHGKILEVV	3.53
YNIATRRKALKNPSEEYGHILEVV	2.42
YNIATRRKALKNPSEEYGIILEVV	1.8
YNIATRRKALKNPSEEYGWILEVV	1.65
YNIATRRKALKNPSEEYGEILEVV	3.37
YNIATRRKALKNPSEEYGAILEVV	2.5

Variant	protein stability index
YNIATRRKALKNPSEEYGKILMVV	2.09
YNIATRRKALKNPSEEYGKILYVV	2.27
YNIATRRKALKNPSEEYGKILAVV	2.59
YNIATRRKALKNPSEEYGKILPVV	2.49
YNIATRRKALKNPSEEYGKILTVV	2.19
YNIATRRKALKNPSEEYGKILCVV	1.75
YNIATRRKALKNPSEEYGKILLVV	2.54
YNIATRRKALKNPSEEYGKILDVV	3.33
YNIATRRKALKNPSEAYGKILEVV	2.37
YNIATRRKALKNPSEKYGKILEVV	2.1
YNIATRRKALKNPSEPYGKILEVV	2.17
YNIATRRKALKNPSECYGKILEVV	1.85
YNIATRRKALKNPSEVYGKILEVV	2.49
YNIATRRKALKNPSELYGKILEVV	1.99
YNIATRRKALKNPSEFYGKILEVV	1.62
YNIATRRKALKNPSEEYRKILEVV	2.4
YNIATRRKALKNPSEEYKKILEVV	2.97
YNIATRRKALKNPSEEYEKILEVV	3.29
YNIATRRKALKNPSEEYTKILEVV	2.19
YNICTRRKALKNPSEEYGKILEVV	3.31
YNIETRRKALKNPSEEYGKILEVV	3
YNIVTRRKALKNPSEEYGKILEVV	2.49
YNIYTRRKALKNPSEEYGKILEVV	2.12
YNINTRRKALKNPSEEYGKILEVV	3.27
YNIHTRRKALKNPSEEYGKILEVV	2.89

Variant	protein stability index
YNIRTRRKALKNPSEEYGKILEVV	2.97
YNEATRRKALKNPSEEYGKILEVV	2.74
YNPATRRKALKNPSEEYGKILEVV	3.14
YNDATRRKALKNPSEEYGKILEVV	3.19
YNAATRRKALKNPSEEYGKILEVV	3.11
YNIATRRKALKDPSEEYGKILEVV	3.32
YNIATRRKALKAPSEEYGKILEVV	2.55
YNIATRRKALKEPSEEYGKILEVV	3.35
YNIATRRKALKHPSEEYGKILEVV	2.74
YNIATRRKALKSPSEEYGKILEVV	2.76
YNIATRRKALKPPSEEYGKILEVV	3.11
YNIATYRKALKNPSEEYGKILEVV	1.76
YNIATLRKALKNPSEEYGKILEVV	1.79
YNIATWRKALKNPSEEYGKILEVV	1.96
YNIATSRKALKNPSEEYGKILEVV	2.7
YNIATVRKALKNPSEEYGKILEVV	2.1
YNIATGRKALKNPSEEYGKILEVV	2.76
YLIATRRKALKNPSEEYGKILEVV	1.9
YFIATRRKALKNPSEEYGKILEVV	1.71
YCIATRRKALKNPSEEYGKILEVV	2.18
YHIATRRKALKNPSEEYGKILEVV	2.07
YEIATRRKALKNPSEEYGKILEVV	3.12
YRIATRRKALKNPSEEYGKILEVV	2.5
YYIATRRKALKNPSEEYGKILEVV	2.43
YNIATRRKALWNPSEEYGKILEVV	2.19

Variant	protein stability index
YNIATRRKALVNPSEEYGKILEVV	2.53
YNIATRRKALMNPSEEYGKILEVV	2.85
YNIATRRKALKNPSEEYGKTLEVV	3.62
YNIATRRKALKNPSEEYGKGLEVV	3.52
YNIATRRKALKNPSEEYGKMLEVV	3.13
YNIATRRKALKNPSEEYGKPLEVV	3.3
YNIATRRKALKNPSEEYGKALEVV	3.46
YNIATRRKALKNPSEEYGKSLEVV	4.11
YNIATRRKALKNPSEEYGKYLEVV	3.18
YNIATRRKALKNPSEEYGKHLEVV	3.59
YNIATRRKAMKNPSEEYGKILEVV	2.86
YNIATRRKATKNPSEEYGKILEVV	3.14
YNIATRRKAPKNPSEEYGKILEVV	3.23
YNIATRRKAVKNPSEEYGKILEVV	3.07
YNIATRRKAIKNPSEEYGKILEVV	3.22
YNIATRRKAEKNPSEEYGKILEVV	3.53
YNIATRRKALKNPSEEYGKITEVV	3.91
YNIATRRKALKNPSEEYGKIYEVV	2.46
YNIATRRKALKNPSEEYGKIVEVV	3.34
YNIATRRKALKNPSEEYGKIIEVV	2.17
YNIATRRKALKNPSEEYGKIGEVV	3.52
YNIATRRKALKNPSEEYGKISEVV	3.76
YNIATRRKALKNPSEEYGKIHEVV	3.61
YNIATRRKALKNPSEEYGKIQEVV	3.8
YNIATRDKALKNPSEEYGKILEVV	2.84

Variant	protein stability index
YNIATRHKALKNPSEEYGKILEVV	2.69
YNIATRGKALKNPSEEYGKILEVV	2.78
YNIATRTKALKNPSEEYGKILEVV	2.95
YNIATRCKALKNPSEEYGKILEVV	2.37
YNIATREKALKNPSEEYGKILEVV	3.66
YNIATRRKALKNPSFEYGKILEVV	2.29
YNIATRRKALKNPSCEYGKILEVV	2.17
YNIATRRKALKNPSVEYGKILEVV	1.85
YNIATRRKALKNPSWEYGKILEVV	1.78
YNIATRRKALKNPSHEYGKILEVV	2.43
YNIATRRKALKNPSYEYGKILEVV	2
YNIATRRKALKNPSIEYGKILEVV	2.46
YNIATRRKALKNPSQEYGKILEVV	2.15
YNIATRRKALKNPSPEYGKILEVV	2.21
YNIATRRKALKNPSAEYGKILEVV	2.1
YNIATRRKALKNPSDEYGKILEVV	2.7
YNIATRRKALKNPSKEYGKILEVV	2.06
YNIACRRKALKNPSEEYGKILEVV	2.17
YNIAARRKALKNPSEEYGKILEVV	2.54
YNIAWRRKALKNPSEEYGKILEVV	1.83
YNIAGRRKALKNPSEEYGKILEVV	2.82
YNIAPRRKALKNPSEEYGKILEVV	2.82
YNIAFRRKALKNPSEEYGKILEVV	2.27
YNIAYRRKALKNPSEEYGKILEVV	2
YNIATRRKALKNPSEEYGKILEVQ	3.52

Variant	protein stability index
YNIATRRKALKNPSEEYGKILEVH	3.11
YNIATRRKALKNPSEEYGKILEVD	3.66
YNIATRRKALKNPSEEYGKILEVK	3.77
YNIATRRKALKNPSEEYGKILEVW	1.96
YNIATRRKALKNPSEEYGKILEVP	4.07
YNIATRRKALKNPSEEYGKILEVN	3.64
YNIATRRKALKNPSEEYGKILEVC	3.37
YNIATRRKDLKNPSEEYGKILEVV	3.2
YNIATRRKVLKNPSEEYGKILEVV	2.55
YNIATRRKYLKNPSEEYGKILEVV	2.09
YNIATRRKLLKNPSEEYGKILEVV	2.17
YNIATRRKALKNFSEEYGKILEVV	1.96
YNIATRRKALKNSSEEYGKILEVV	3.05
YNIATRRKALKNHSEEYGKILEVV	2.94
YNIATRRKALKNCSEEYGKILEVV	3.26
YNIATRRKALKNMSEEYGKILEVV	2.27
YNIATRRKALKNKSEEYGKILEVV	3.19
YNIATRRKALKNPTEEYGKILEVV	2.85
YNIATRRKALKNPAEEYGKILEVV	2.98
YNIATRRKALKNPNEEYGKILEVV	2.71
VNIATRRKALKNPSEEYGKILEVV	2.76
NNIATRRKALKNPSEEYGKILEVV	3.35
ENIATRRKALKNPSEEYGKILEVV	3.55
ANIATRRKALKNPSEEYGKILEVV	3.18
DNIATRRKALKNPSEEYGKILEVV	3.69
